Assay [1] concerns the target E. coli ribosomal post-peptide-release complex (RC; 70S, tRNA^fMet and [Met, stop]-mRNA) (E. coli) (UniProt P0AG67). Put plainly: co-sedimentation; as a1 but with extra GDP titrated in, up to 200 μM extra GDP; ultracentrifugation on sucrose cushion, SDS-PAGE.
Assay [2] has the same target. Put plainly: co-sedimentation; RC or naked 70S (ribosomes 0.5 µM) with RF1 (2 µM) and RF3 (6 µM), 1xHEPES-polymix buffer, 37°C 10 min, no extra added GDP; ultracentrifugation on 30% sucrose cushion, SDS-PAGE, band intensities compared with ribosomal protein S1.

This note sets out measurements from publication PMC3677378.

For “release factor 1 (RF1), wild type (from UniProt P0A7I0 1-360) (natural protein)”, the stoichiometry N (RF1 per S1 (band intensity)) in assay [1] and in assay [2] was 1 throughout.
